The term Kd denotes the equilibrium constant for the complex coming apart.

Drawing on patent publication US20160003844A1 (MOGAM BIOTHECHNOLOGY INSTITUTE, published 2016), this text covers Kd for six molecules.

The target in one experiment is T1, human serum albumin (human, UniProt P02768 25-609).
T1 construct: also called HAS; HSA
Put plainly: method not stated; 'Affinity (nM)'.

The target in experiment [1] is T2, Human Epidermal Growth Factor Receptor-3 (human, UniProt P21860 20-643, limits assumed).
T2 construct: also called HER3
Description: method not stated; 'Affinity (nM)'.

T2 sequence (P21860 20-643 limits assumed): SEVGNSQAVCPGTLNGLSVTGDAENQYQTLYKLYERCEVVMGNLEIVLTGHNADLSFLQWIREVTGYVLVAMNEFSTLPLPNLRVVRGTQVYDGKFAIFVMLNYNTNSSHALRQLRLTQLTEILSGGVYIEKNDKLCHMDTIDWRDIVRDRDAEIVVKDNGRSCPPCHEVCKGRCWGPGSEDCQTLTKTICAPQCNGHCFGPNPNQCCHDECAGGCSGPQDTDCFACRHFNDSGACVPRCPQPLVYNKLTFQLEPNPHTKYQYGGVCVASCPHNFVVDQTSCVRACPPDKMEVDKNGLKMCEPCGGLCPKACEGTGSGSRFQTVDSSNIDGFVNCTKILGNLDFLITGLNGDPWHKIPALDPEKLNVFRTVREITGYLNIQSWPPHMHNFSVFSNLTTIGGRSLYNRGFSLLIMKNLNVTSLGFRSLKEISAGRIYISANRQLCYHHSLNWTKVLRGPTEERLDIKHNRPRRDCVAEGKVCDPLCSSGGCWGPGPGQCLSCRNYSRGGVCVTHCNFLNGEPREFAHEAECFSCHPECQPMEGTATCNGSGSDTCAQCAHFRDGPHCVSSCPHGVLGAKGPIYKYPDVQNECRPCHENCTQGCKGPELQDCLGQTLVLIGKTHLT
T1 sequence (P02768 25-609 limits assumed): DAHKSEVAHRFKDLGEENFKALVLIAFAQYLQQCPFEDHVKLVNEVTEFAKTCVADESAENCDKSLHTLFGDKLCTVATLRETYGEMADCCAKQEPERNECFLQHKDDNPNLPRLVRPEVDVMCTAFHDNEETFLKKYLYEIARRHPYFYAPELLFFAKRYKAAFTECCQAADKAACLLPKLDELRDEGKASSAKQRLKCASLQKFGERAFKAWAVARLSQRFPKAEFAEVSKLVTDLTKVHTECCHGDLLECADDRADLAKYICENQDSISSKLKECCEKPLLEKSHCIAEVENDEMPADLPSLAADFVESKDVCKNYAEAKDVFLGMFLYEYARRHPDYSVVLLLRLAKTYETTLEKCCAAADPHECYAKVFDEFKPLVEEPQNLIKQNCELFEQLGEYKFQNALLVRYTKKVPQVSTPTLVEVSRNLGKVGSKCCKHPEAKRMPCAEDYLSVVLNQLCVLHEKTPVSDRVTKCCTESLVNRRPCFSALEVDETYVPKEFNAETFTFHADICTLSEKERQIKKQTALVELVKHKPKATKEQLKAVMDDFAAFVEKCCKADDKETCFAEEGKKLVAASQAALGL

B1: HSA50 (other)
VH: EVQLVESGGGLVQPGGSLRLSCAASGFTFSSYAMGWVRQAPGKGPEVVSLISGSGGSTWYDDSVKGRFTISRDNSKNTLYLQMNSLRAEDTAVYYCASHQFTTTQWGQGTLVTVSS
notes: Human VH domain antibody (single heavy chain variable domain)
As for B1, in the experiment with human serum albumin, the Kd came to 7.8 nM.

B2: HER3#62 (other)
VH: EVQLVESGGGLVQPGGSLRLSCAASGFTFSSYAMGWVRQAPGKGPEVVSLISGSGGSTWYDDSVKGRFTISRDNSKNTLYLQMNSLRAEDTAVYYCASHPPRVDTWGQGTLVTVSS
notes: as for B1
In turn, B2 gave a Kd in experiment [1] of 1.8 nM. This lies in the single-digit nanomolar range.

B3: HER3#723 (other)
VH: EVQLVESGGGLVQPGGSLRLSCAASGFTFYNYPMGWVRQAPGKGPEVVSLISGSGGSTWYDDSVKGRFTISRDNSKNTLYLQMNSLRAENTAVYYCASHPVSLLFWGQGTLVTVSS
notes: Human VH domain antibody (single heavy chain variable domain), FR3 reads ...SLRAEN TAVYYC (N where the other clones have D)
Take B3: in experiment [1], the Kd was 27.4 nM.

B4: HSA9 (other)
VH: EVQLVESGGGLVQPGGSLRLSCAASGFTFSSYAMGWVRQAPGKGPEVVSLISGSGGSTWYDDSVKGRFTISRDNSKNTLYLQMNSLRAEDTAVYYCASHQWSRQQWGQGTLVTVSS
notes: Human VH domain antibody (single heavy chain variable domain) selected from a CDR-engineered library; its FR2 matches the MG8-4 scaffold
The molecule B4 came in with a Kd with human serum albumin of 1.7 nM. That is a single-digit nanomolar value.

B5: HER3#748 (other)
VH: EVQLVESGGGLVQPGGSLRLSCAASGFTFYSLMMGWVRQAPGKGPEVVSLISGSGGSTWYDDSVKGRFTISRDNSKNTLYLQMNSLRAEDTAVYYCASRHPPGLMWGQGTLVTVSS
notes: as for B1
In experiment [1], B5 yielded a Kd of 20 nM. This lies in the double-digit nanomolar range.

B6: HSA11 (other)
VH: EVQLVESGGGLVQPGGSLRLSCAASGFTFSSYAMGWVRQAPGKGPEVVSLISGSGGSTWYDDSVKGRFTISRDNSKNTLYLQMNSLRAEDTAVYYCASHKFRNLKWGQGTLVTVSS
notes: as for B1
For B6, the Kd in the experiment with human serum albumin is 1.2 nM.
